Earlier results on one substance are cited in publication PMC2683937.

Data set [1] concerns the target TGF-β1 (Homo sapiens) (UniProt P01137).
Data set [2] addresses BMP4 (Homo sapiens) (UniProt P12644).
Sequence of UniProt P12644 (P12644 293-408): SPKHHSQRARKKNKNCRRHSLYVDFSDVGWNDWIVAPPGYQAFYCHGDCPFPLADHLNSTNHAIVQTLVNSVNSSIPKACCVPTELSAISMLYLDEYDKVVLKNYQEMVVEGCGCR

Sequence of UniProt P01137 (P01137 279-390): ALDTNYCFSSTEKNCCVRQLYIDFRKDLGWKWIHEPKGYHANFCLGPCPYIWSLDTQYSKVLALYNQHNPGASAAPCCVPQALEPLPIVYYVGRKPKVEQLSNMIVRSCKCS

For CCN2 (from UniProt P29279), the figures for the Kd in data set [1] and in data set [2] were 0.03 µM and 0.005 µM, respectively.
